Key:
[1] = biological target: other ChS candidates
[2] = biological target: T1, chalcone synthase-like C (ChSC)
T1 chain: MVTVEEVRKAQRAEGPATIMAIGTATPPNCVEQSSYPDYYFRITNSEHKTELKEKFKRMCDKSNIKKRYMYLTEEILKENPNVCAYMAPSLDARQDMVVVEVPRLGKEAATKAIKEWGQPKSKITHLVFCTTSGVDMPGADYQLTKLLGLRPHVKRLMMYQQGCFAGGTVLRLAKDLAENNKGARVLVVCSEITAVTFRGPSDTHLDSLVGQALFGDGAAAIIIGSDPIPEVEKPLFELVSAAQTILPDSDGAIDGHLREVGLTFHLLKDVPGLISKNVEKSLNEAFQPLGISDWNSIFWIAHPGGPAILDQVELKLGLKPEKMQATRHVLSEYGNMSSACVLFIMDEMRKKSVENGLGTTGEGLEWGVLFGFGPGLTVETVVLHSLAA

[3] = biological target: T2, chalcone synthase-like A (ChSA)
T2 chain: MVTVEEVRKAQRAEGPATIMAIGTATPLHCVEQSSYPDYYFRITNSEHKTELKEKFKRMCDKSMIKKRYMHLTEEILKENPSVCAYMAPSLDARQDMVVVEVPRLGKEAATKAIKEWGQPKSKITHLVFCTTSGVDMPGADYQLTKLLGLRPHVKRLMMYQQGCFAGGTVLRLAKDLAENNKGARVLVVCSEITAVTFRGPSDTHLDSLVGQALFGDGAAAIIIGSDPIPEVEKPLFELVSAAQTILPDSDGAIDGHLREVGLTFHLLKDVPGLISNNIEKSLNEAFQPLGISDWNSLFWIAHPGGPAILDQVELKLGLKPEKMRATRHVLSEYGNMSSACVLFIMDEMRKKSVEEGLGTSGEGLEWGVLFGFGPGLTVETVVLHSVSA

[4] = biological target: T3, chalcone synthase-like B (ChSB)
T3 chain: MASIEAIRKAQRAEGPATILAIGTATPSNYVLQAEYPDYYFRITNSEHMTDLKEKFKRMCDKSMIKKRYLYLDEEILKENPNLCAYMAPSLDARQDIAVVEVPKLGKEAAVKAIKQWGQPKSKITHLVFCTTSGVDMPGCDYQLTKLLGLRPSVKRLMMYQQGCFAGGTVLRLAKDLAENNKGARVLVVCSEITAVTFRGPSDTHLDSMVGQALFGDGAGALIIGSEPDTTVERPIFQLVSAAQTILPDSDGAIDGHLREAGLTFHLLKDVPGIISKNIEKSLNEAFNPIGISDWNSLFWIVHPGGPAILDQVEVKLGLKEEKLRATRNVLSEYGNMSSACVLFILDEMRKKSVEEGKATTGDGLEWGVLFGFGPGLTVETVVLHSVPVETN

[5] = biological target: T4, chalcone synthase-like D (ChSD)
T4 chain: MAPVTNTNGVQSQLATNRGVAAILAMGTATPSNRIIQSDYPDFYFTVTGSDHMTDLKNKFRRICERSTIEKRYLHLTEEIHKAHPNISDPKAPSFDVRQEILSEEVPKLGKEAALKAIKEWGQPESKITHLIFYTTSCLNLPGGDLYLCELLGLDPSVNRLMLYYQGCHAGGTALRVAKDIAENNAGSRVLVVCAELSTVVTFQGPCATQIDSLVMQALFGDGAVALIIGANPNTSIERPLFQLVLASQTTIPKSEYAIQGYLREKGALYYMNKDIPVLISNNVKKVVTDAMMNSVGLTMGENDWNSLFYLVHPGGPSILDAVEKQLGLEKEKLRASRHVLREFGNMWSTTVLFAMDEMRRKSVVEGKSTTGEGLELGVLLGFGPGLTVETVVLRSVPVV

[6] = biological target: T5, chalcone synthase-like F (ChSF)
T5 chain: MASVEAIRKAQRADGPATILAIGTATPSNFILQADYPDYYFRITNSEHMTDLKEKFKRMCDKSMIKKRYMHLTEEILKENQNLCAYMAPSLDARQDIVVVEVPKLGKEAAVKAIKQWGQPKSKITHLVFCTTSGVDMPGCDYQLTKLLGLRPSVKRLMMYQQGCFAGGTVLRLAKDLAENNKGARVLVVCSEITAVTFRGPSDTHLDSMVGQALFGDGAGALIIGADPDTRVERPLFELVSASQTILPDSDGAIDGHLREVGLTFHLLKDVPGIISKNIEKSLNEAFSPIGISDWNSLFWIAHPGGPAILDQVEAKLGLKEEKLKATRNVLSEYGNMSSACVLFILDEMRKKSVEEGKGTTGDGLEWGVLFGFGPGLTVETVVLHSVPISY

B1: chalcone synthase-like E (ChSE) (protein)
chain: MGSLDQDFQPNQVPTIRADAATVLAIGTANPPNCIPQAEFADFYFRVTNSNHMTDLKKKFKRICEKSSIKKRYVHLTEKILNENPNICTFKEPSLTARQNIATEEIPKLGKEAALKAIEEWGRPKSEITHLVFCTIGGAEMPSADYQLVHLLGLNPSVKRFMLYYQGCFAGGSVLRLAKDLAENNVGARVLVVCAEVSIPYFHGPSEAHFDSNLIWQMLCGDGAGAAIVGSNPRKLIERPLFQLVSASQTIVPNSEGAIKGTLSEMGIIFNLVDKVPVLIGNNIENCLEEAFGSLGISNWNSLFWVAHPGGPAILNQIEEKLKLKEEKLKASRHVLSEYGNMSSACVFFILDEMRRRSKEEGKITTGDGLEWGVLFGFGPGLTVETIVLRSISTNEAH
B1 was tested, and the “levels of QA-TriR-FRX-C9 in N. benthamiana leaves (drop-out of one of six co-infiltrated ChS candidates)” value [1] was “The levels of QA-TriR-FRX-C9 were not affected except when ChSE was absent”, the “levels of product (QA-TriR-FRX-C9) in N. benthamiana leaves, ChS pairs co-infiltrated” value [2] was “Pairing ChSE with ChSA, ChSC, CHSD or CHSF increased the levels of product made compared to either ChSE by itself or to the combination of all ChSs but ChSE” and the “levels of product (QA-TriR-FRX-C9) in N. benthamiana leaves, ChS pairs co-infiltrated” value [3] was “Pairing ChSE with ChSA, ChSC, CHSD or CHSF increased the levels of product made compared to either ChSE by itself or to the combination of all ChSs but ChSE”. For the same protein, the “levels of product (QA-TriR-FRX-C9) in N. benthamiana leaves, ChS pairs co-infiltrated (repeat experiment)” value [4] was “In a repeat experiment, ChSB paired with ChSE also led to a noticeable increase of product”, the “QA-TriR-FRX-C9 amounts in N. benthamiana leaves, triads of ChSs co-infiltrated” value [5] was “the triads containing ChSD consistently had higher QA-TriR-FRX-C9 amounts than those without” and the “levels of product (QA-TriR-FRX-C9) in N. benthamiana leaves, ChS pairs co-infiltrated” value [5] was “Pairing ChSE with ChSA, ChSC, CHSD or CHSF increased the levels of product made compared to either ChSE by itself or to the combination of all ChSs but ChSE”. For the same protein, the “levels of product (QA-TriR-FRX-C9) in N. benthamiana leaves, ChS pairs co-infiltrated” value [6] was “Pairing ChSE with ChSA, ChSC, CHSD or CHSF increased the levels of product made compared to either ChSE by itself or to the combination of all ChSs but ChSE”.
